Assay: soluble on expression in E. coli; label from the status in PepcDB or PDB records

Sequence	soluble on expression in E. coli
MAKIYNAPKPKYSGWEWFKFIAIRTVFPPVLLWDLIKIGANKLLGEWVSGLVLPAQNENFDDLAISDDTVSNYNEDDLICEKHDVITHDGAHLDTFEVRHRSQESIDPKYQKYIINLVGNGMCYEHIIDDIKEDSKALKANVIGFNLRGVGQSTGKAKSSEDLVADGIAQVQRLLDQGVSPQNITLKGHSLGAGVASLVAQHFHQLGQPINLFNSRSFSTITNFLVGHMRLERDEIGRAIGHKDSTVGTILGWLAKPFIKFGVALAKWEINAGSAFKSVPEAYKDYIVVRSRKEIRGERIDDAVIPHYASIHKELASERHKKKAEIDEEIANLDDIIRKADPLAKPGLANARDALVQAREKIKSDRKMETDVQYANGHNSDWNALHNRSGKSAQTFFREFVQRTEADHAVKSIPEIN	not soluble
MSRIMIQGTASSVGKSILVAALCRIFKQDGFSVCPYKSQNMSLNSYITLDGKEMGRAQVLQAYAAGLEPEVYMNPILLKPTTDKSCQVIVKGEVYGVSSAKNYYNMKKEFAPMLKEDFEELEDKFDIVVIEGAGSPAEINLRENDIVNMGLAELVDAPVVLVGDIDKGGVFASLFGTVMLLEENERKRIKGTIINKFRGDVEILKPGLSMLEERINIPCFGVVPYFN	not soluble
MPPRFNIANVLLSPDGETFFRGFRSKIHAKGSLVCTGEGDENGVFVVVDGRLRVYLVGEEREISLFYLTSGDMFCMHSGCLVEATERTEVRFADIRTFEQKLQTCPSMAWGLIAILGRALTSCMRTIEDLMFHDIKQRIAGFFIDHANTTGRQTQGGVIVSVDFTVEEIANLIGSSRQTTSTALNSLIKEGYISRQGRGHYTIPNLVRLKAAADGDRDDDDD	soluble
MEKTPAETTAVSAGNVPRDSIPCITNVSADTRGRTRPSRPATVPQRRPARIGHFRRRSASLSFLDWPDGSVTEGVRTTSASVAASAARFDEIRRRRQSINDEMKERTLEDALAVELVNETFRCSVTSDARKDLQKLVRRVSGTVLRLSWPNGWFFTYCDLLRVGYFGHLNIKGLEKTFLCCDKFLPGLEHHHHHH	not soluble
NALRRDPNLPVHIRGWLHKQDSSGLRLWKRRWFVLSGHCLFYYKDSREESVLGSVLLPSYNIRPDGPGAPRGRRFTFTAEHPGMRTYVLAADTLEDLRGWLRALGRASRAEGDDYGQPRSPAR	soluble
MGSDKIHHHHHHMKAVYPGSFDPITLGHVDIIKRALSIFDELVVLVTENPRKKCMFTLEERKKLIEEVLSDLDGVKVDVHHGLLVDYLKKHGIKVLVRGLRAVTDYEYELQMALANKKLYSDLETVFLIASEKFSFISSSLVKEVALYGGDVTEWVPPEVARALNEKLKEGKR	soluble
GPGSMSEELILQWAKRVSDAEEELHRMEEDINAVKQQRKLLKADIRKYEDVVASEKCDLLTSLERVEAQAKDLGAQCEATLTEKDRVEAEYMATLDAYENLHFLVREIKDAEEHLQSRDDLEACLQRESVTWAEEEHTLRRKLHELQQQQAQARRAQEAEVRELEAQLSNVEQRQRDERAGRCVEVAQAARRVVHSSRQPTPASPKPVTSAEEDAFVSANAGGAMPIRSAPLKSCLKTPVNGSTSGNAAPTAPRHTTAASAPVSRCASQSLVSDAAASGVQRQGVDGGDQPSLRLLQEMRAYSYGAPCKAGARKREFLGDATNNQ	soluble
MGSDKIHHHHHHCQNAAATDTNQSVSAKLQQQALSSSLAYDIVESLTVEVGPRLAGSDKDLVAVEWAEKKLGSLGFDKVYKEAVQVPVWQRGEAKANIVSPYAQPLVITALGGSVGTPEEGISAPIVRFETLDELKQADPSLVAGKIVFIDHITPRFKTGKGYGMTVGGRSRGAIAAAEKGALAIVIRSIGTDHDRMAHTGMMRYQEGVDKIPAAAMSNPDADLVTLMLKRDPNVVLHLEMSPKNLGYATSYNVIAEVTGSSKPDEIVLIGAHLDSWDEGTGAIDDGAGVAIVTAAGHYISQLRVKPARTVRVVLYAAEELGLIGGKSYAKDHQAELAQHYIAAESD	not soluble
MSLANMHQEPDGSWMVEGQTTVRELNRVLKWGLPANGPRTLNGLILEHLESIPEAGTSLLIQGWPVTILQTQDNRVKMARVQPHHKRRRQPRRHEGHHHHHH	soluble
MGSDKIHHHHHHMPQRIDLRVRPEEATDEQILRKHVARQTKTDPTDIHTIIIRRRSIDARQRQVYVNLGLEVYSGSESPVEDDFSDLIYPSVEGKTAVIVVGAGPAGLFAALRLIELGLRPIILERGKSVHERRADIARIPKEGHVDPESNYGFGEGGAGAFSDGKLYTRSKKRGDITKILRILCKHGAQPSILIDAHPHIGTDRLPKVIENIRHQILAAGGEVHFSCRMESLIIHNGQVVGARDNKGREYCGPVILATGHSARDIYRYLHRNGIRMEAKGTAVGVRLEHPQALIDQLRYHNPKGRGLYLPPAEYTYTAQVEGRGVYSFCMCPGGFVVPASTAPDQTVVNGMSPANRGSRWANSGLVVEIHPEDVLSTPTNDPLALMNWIERLEGESWTQARCSLRAPAQRMTDFLSGRSSVDLPKSSYNMGLTPSRLDEWLPSFITKRIQKAFQLFDRQTKGFLTAEAQLIALESRTSSPVRILRESTSCEHPLLRGLFPCGEGAGYAGGIVSAAMDGERCAEGVASYLG	not soluble
MGGFGLKYRPVPIKRVLPGSIAQESDLQEGDLILSINGQKISDIFDYRFLIADENLVLEVQKKNGEIWEIEIEKDEYEDLGIEFENLMIDDTKSCRNKCIFCFIDQLPKGMRETLYFKDDDSRLSFFMGNYVTLTNMSYDDIDRIIKYKMSPINVSVHTSNPELRVYMLRNKTAGDVMDKIKRLIEGGIKVNAQIVLVRGVNDGKELDRTLKDLSALYPGLNSISVVPVGITKYREGLYELKPFDMESSREVIKQVEAWQMELLSKYGSRIVFIADEFYIMAGLEIPDYCVYEDFPQIENGVGLVAMLKKEFDDYFEELELKLENKREVSIATGVSSYKYIKEMIDILENKYKNLYVHVYKIKNNFFGENVTVTGLLTGQDIERQLSGKNLGRELLLSESMLKSGERVFLDDYTVEMLEDKLKTKITIVRNNGKDFIEKVLGIVL	soluble
MHHHHHHMKRKSIFKDKVFLFLNAKQYKKLSPAVLFGGGKTDLLMGELKDASVLDNPATCVIDVAMTESQLSESQSTQPWITSTLDLLQSKGLRTIPEAEIGLAVINVSTEIYCNPRR	soluble
MSLRDYAEIAASGILRAVTEYNSISFYADGDTVSGFHYELLHAFAHSKGLKPEITPEMSFSKRLEDVQKGTYDILANSTVVTTEYKDSLLFTRPIILNKQVLVQRKPEKENDSLYIHSQLELARKTLHLVKNSPAILRIHNLSNEIGDTIYIKEVEKYGQEQLLAMVAHGDIDYAVCDESIAKASINDFPQLDIETAISFSQFYSWGVSKHSPILLDSLNSWLNDYVKTPAFKLLRKKYYNNEGHHHHHH	soluble
MTMQFKIPTVLRSQEIIDKSFSRASKIEEPYFPDKVERIKKEVQDRISAIESISCSHLDKLVKRFPSIERMHPFYRSLIDLMFDVDQYKIALSKVDATSANIKRISTEYIRKLRPVKDVGNANQIMRAYYGRFASLIEDLNETLLFLGRCRDYIRKLPEVRTDLKTYIIAGMPNVGKSSLLASLTTAKPKIASYPFTTKNVIIGYNESGSERIQFIDTPGILDRDFSEMNEIEKNAILAIRFIEGKIIFLFDYSTESLYTREQQEHLYEQIKNNINPNIIRVQTKLDISTEKVENIAISVNIESGLEPLRKIIFDGGVIDVRGRNLEHHHHHH	soluble
MNNNDLVAKLWKLCDNLRDGGVSYQNYVNELASLLFLKMCKETGQEADYLPEGYRWDDLKSRIGQDQMQFYRNLLVQLGSDEKKLVQAVFHNVSTTIEQPKQLTELVSYMDALDWYNGNHGKSRDDFGDMYEGLLQKNANETKSGAGQYFTPRPLIKTIIHLLKPQPREVVQDPAAGTAGFLIEADRYVKSQTNDLDDLDGDTQDFQIHRAFIGLELVPGTRRLALMNCLLHDIEGNLDHGGAIRLGNTLGSDGENLPKAHIVATNPPFGSAAGTNITRTFVHPTSNKQLCFMQHIIETLHPGGRAAVVVPDNVLFEGGKGTDIRRDLMDKCHLHTILRLPTGIFYAQGVKTNVLFFTKGTVTNPHQDKNCTDDVWVYDLRTNMPSFGKRTPFTEQHLQPFETVYGEDPHGLSPREEGEWSFNAEESEVADSEENKNTDQHQATSRWRKFSREWIRSAKSDSLDISWLKDKDSIDADSLPEPDVLAAEAMGELVQALGELDALMRELGAGDEADAQRQLLNEAFGEVKA	not soluble
MIQKINILDSSQSGVKNGADSEAVLAALIEHLELINPSGRLSQNTRSAMLQLREEEWSEFFFWLLNSLECLDYVIINLTPESKKTLMSEHRNNIQVAIDALYSQRRRKSPGDESETLTRRNDAIFGNHVWQTFAQYFPPGLEKPSV	not soluble

Source: the DeepSol protein solubility set
